Results from US6436636B1, “Methods for identifying pharmacologicals for the treatment of heart failure” (Wake Forest University, priority 1995, dated 2002).

Experiments:
Test in all cases: UV-crosslinking of recombinant p37AUF1 to radiolabeled RNA
Type in all cases: binding
Conditions in all cases: UV irradiation, Rnase A+T1 digestion, SDS-PAGE, autoradiography
human β1-AR 3′UTR RNA = system: human β1-AR 3′UTR RNA
Text: (§1) FIG. 5 represents an autoradiogram showing UV-crosslinking of purified, recombinant p37AUF1 polypeptide to human β1-AR 3′UTR RNA. Autoradiogram of recombinant p37AUF1 UV-crosslinked to radiolabeled, in vitro transcribed human β1-AR 3′UTR RNA. Lane 1, β1-AR RNA in the absence of competitor RNA. Lanes 2 and 3, β1-AR RNA is the presence of 10-fold and 100-fold molar excess of unlabeled β1-AR RNA. Lane 4, β1-AR RNA in the presence of 100-fold molar excess of rabbit β-globin RNA (Rb). Lane 5, c-fos ARE only. Lane 6, rabbit β-globin RNA only.
(§2) To show AUF1 binds to the human β1-AR 3′UTR, radiolabeled RNA was incubated with purified, recombinant p37AUF1, subjected to UV irradiation, Rnase A+T1 digestion, SDS-PAGE, and autoradiography. Recombinant p37AUF1 polypeptide binds to the β1-AR 3′UTR and to the c-fos ARE but fails to bind to rabbit β-globin (Rβ) RNA (FIG. 5).
A 919 bp cDNA fragment corresponding to the β1AR 3′ UTR was synthesized by PCR and subcloned into pcDNA3 (Invitrogen) utilizing the Xho I and Xba I restriction endonuclease sites. The resulting vector was linearized with Xba I, and in vitro transcription was performed as described in Port et al., J. Biol. Chem. 267:24103-24108 (1992). Briefly, radiolabeled RNA was synthesized using T7 DNA-directed RNA polymerase and [α-^32P]UTP (800 Ci/mmol, New England Nuclear) to produce uniformly labeled, 5′-capped RNA. […]

rabbit β-globin (Rβ) RNA = system: rabbit β-globin (Rβ) RNA
Text: as §1, §2
(§3) A 0.3M KC1 ribosomal salt wash (RSW) was produced from DDT1-MF2 cells using the method of Brewer and Ross, Methods in Enzyznology 181:202-209 (1990). UV-crosslinking was performed as described in Port et al., J. Biol. Chem. 267:24103-24108 (1992) Briefly, an aliquot of radiolabeled RNA (1-4×10^6 cpm) was added to a mixture containing 20 μl of RSW (˜5×10^6 cell equivalents/μl) from DDT1-MF2 cells, 5 μg of yeast tRNA, 4 mM dithiothreitol, 5 μg heparin, and 65 units of Rnasin™ in a total volume of 50 μl. […]

c-fos ARE = system: c-fos ARE
Text: as §1, §2, §3

B1: p37AUF1: purified, recombinant p37AUF1 polypeptide (His6 fusion expressed in E. coli), A+U-rich element RNA-binding factor (protein)
chain: MSEEQFGGDGAAAAATAAVGGSAGEQEGAMVAATQGAAAAAGSGAGTGGGTASGGTEGGSAESEGAKIDASKNEEDEGKMFIGGLSWDTTKKDLKDYFSKFGEVVDCTLKLDPITGRSRGFGFVLFKESESVDKVMDQKEHKLNGKVIDPKRAKAMKTKEPVKKIFVGGLSPDTPEEKIREYFGGFGEVESIELPMDNKTNKRRGFCFITFKEEEPVKKIMEKKYHNVGLSKCEIKVAMSKEQYQQQQQWGSRGGFAGRARGRGGDQQSGYGKVSRRGGHQNSYKPY
modifications: left off: small tags and cut ends
For B1, which “binding to β1-AR 3′UTR” value (human β1-AR 3′UTR RNA) is on record?
Its value is “binds”.

What about the “binding to rabbit β-globin (Rβ) RNA” value (rabbit β-globin (Rβ) RNA) of the same molecule?
Its value is “fails to bind”.

And the “binding to c-fos ARE” value (c-fos ARE)?
Its value is “binds”.
